# Experimental data from PMC9800739, “Epigenetic drugs in somatostatin type 2 receptor radionuclide theranostics and radiation transcriptomics in mouse pheochromocytoma models” (Theranostics, 2023).
# Legend:
# [1] = tested on: midgut neuroendocrine liver metastases; settings: after a short course of vorinostat; cited from earlier work
# MPC tumors [2] = format: in vivo, mouse; settings: mouse, in vivo
# Procedure: (§1) During anesthesia, animals were continuously warmed at 37°C. […] Animals were sacrificed using CO2 inhalation and cervical dislocation.
# (§2) 107 (30%), muscle (0%), kidneys (25%), and liver (35%).
# (§3) 116 attenuation. Images were post-processed and analyzed using ROVER (ABX). Three-
# 118 kidneys (15%), and liver (25%). […]
# MTT tumors = assay: SPECT imaging of [177Lu]Lu-DOTA-TATE uptake in MTT allograft mice; settings: mouse, in vivo
# Procedure: as §1
# (§4) Small animal single-photon emission computed tomography (SPECT) was initiated 22‒26 hours after radiotracer injection using the nanoSPECT/CT scanner (Mediso Medical Imaging Systems). […] Activity concentration in tissues was determined and reported as AV mean (VOI-averaged volume activity AV tissue 24h, MBq/mL). Details on quantitative SPECT image analysis are provided in Supplemental Information 1.5.
# as §2, §3
# (§5) 118 kidneys (15%), and liver (25%).
# (§6) 119 1.6 Sstr2 promoter methylation analysis
# (§7) 122 Bisulfite Kit (Qiagen, Hilden, Germany). Bisulfite-converted DNA was amplified using a
# (§8) 125 Switzerland). Electropherograms were compared to PCR products amplified from bisulfite-
# (§9) 127 an unmethylated 900bp-DNA fragment. The latter was generated by amplification of genomic
# (§10) 129 of primers are provided in (Table S 2).
# MPC tumors [3] = assay: SPECT imaging of [177Lu]Lu-DOTA-TATE uptake in MPC allograft mice; settings: mouse, in vivo
# Procedure: as §1, §4, §2, §3, §5, §6, §7
# Amplicon size (195bp) was confirmed
# as §8, §9, §10
structure (smiles),measurement,setting,value
O=C(CCCCCCC(=O)Nc1ccccc1)NO [vorinostat],increase in [68Ga]Ga-DOTA-TATE uptake in tumors,[1],10%
"C[C@@H](O)[C@H](NC(=O)[C@@H]1CSSC[C@H](NC(=O)[C@@H](Cc2ccccc2)NC(=O)CN2CCN(CC(=O)O)CCN(CC(=O)O)CCN(CC(=O)O)CC2)C(=O)N[C@@H](Cc2ccc(O)cc2)C(=O)N[C@H](Cc2c[nH]c3ccccc23)C(=O)N[C@@H](CCCCN)C(=O)N[C@@H]([C@@H](C)O)C(=O)N1)C(=O)O [[^64Cu]Cu-DOTA-TATE, metal not drawn]","SUVmean plateau, MPC compared to MTT allografts",MPC tumors [2],14 fold
"C[C@@H](O)[C@H](NC(=O)[C@@H]1CSSC[C@H](NC(=O)[C@@H](Cc2ccccc2)NC(=O)CN2CCN(CC(=O)O)CCN(CC(=O)O)CCN(CC(=O)O)CC2)C(=O)N[C@@H](Cc2ccc(O)cc2)C(=O)N[C@H](Cc2c[nH]c3ccccc23)C(=O)N[C@@H](CCCCN)C(=O)N[C@@H]([C@@H](C)O)C(=O)N1)C(=O)O [[^177Lu]Lu-DOTA-TATE, metal not drawn]","AV max 24h tumor, sub-cohort",MTT tumors,1.19 ± 0.10 MBq/mL
same,mean tumor AV 24 h (single animal shown in image),MTT tumors,0.59 MBq/mL
same,"AV max 24h tumor, sub-cohort",MPC tumors [3],9.52 ± 0.58 MBq/mL
same,"AV mean 24h, MPC compared to MTT allograft mice",MPC tumors [3],8 fold
same,mean tumor AV 24 h (single animal shown in image),MPC tumors [3],4.14 MBq/mL
